Experimental findings from patent US20050169843A1 are described below.

Data set [1] concerns T1, Gly-Pro-Leu-Gly-Val-Arg-Gly-Lys(FITC)-Cys-NH2 (MMP-2 peptide substrate).
T1 sequence: GPLGVRGKC

The subject of data set [2] is T2, Gly-Val-Arg-Leu-Gly-Pro-Gly-Lys(FITC)-Cys-NH2 (scrambled control peptide).
T2 sequence: GVRLGPGKC

Another data set addresses thrombin. In words: cell-based or functional assay.
The subject of data set [3] is T3, Gly-D-Phe-Pip-Arg-Pro-Gly-Gly-Gly-Gly-Lys(FITC)-Cys-NH2 (control peptide).
T3 sequence: GFXRPGGGGKC

Data set [4] has as its system T4, Gly-D-Phe-Pip-Arg-Ser-Gly-Gly-Gly-Gly-Lys(FITC)-Cys-NH2 (thrombin substrate peptide).
T4 sequence: GFXRSGGGGKC

The test system of data set [5] is Cy-PL-MPEG at 20% fluorochrome loading (11 of 55 free amino groups labelled with Cy5.5).
Data set [6] addresses MMP-1 (human rheumatoid synovial fibroblast, Calbiochem), APMA activated (human) (UniProt P03956). In words: cell-based or functional assay.
For data set [7], the target named is MMP-2 (gelatinase 72 kD, Boehringer Mannheim), activated with p-aminophenyl mercuric acid. In words: cell-based or functional assay.
The target of data set [8] is MMP-2 (human recombinant protein purified from mammalian cells, Calbiochem), APMA activated (human) (UniProt P08253). In words: cell-based or functional assay.
In data set [9] the target is T5, MMP-7 (human recombinant, E. Coli, Calbiochem), APMA activated (human) (UniProt P09237).
T5 sequence (looked up): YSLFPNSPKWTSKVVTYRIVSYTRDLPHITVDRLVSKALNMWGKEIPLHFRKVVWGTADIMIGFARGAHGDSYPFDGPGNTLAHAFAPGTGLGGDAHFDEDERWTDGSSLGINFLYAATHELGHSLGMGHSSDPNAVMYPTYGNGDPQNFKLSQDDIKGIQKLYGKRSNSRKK
In words: cell-based or functional assay.

For data set [10], the target named is MMP-8 (human neutrophil granulocyte, Calbiochem), APMA activated (human) (UniProt P22894). In words: cell-based or functional assay.
In data set [11] the target is MMP-9 (human recombinant protein purified from mammalian cells, Oncogene Research Products), APMA activated (human) (UniProt P14780). In words: cell-based or functional assay.

Primed or numbered codes have the meaning given here. FITC′ = fluorescein isothiocyanate label

MMP-2 (human recombinant protein purified from mammalian cells, Calbiochem), APMA activated (human), sequence (P08253 110-660 limits assumed): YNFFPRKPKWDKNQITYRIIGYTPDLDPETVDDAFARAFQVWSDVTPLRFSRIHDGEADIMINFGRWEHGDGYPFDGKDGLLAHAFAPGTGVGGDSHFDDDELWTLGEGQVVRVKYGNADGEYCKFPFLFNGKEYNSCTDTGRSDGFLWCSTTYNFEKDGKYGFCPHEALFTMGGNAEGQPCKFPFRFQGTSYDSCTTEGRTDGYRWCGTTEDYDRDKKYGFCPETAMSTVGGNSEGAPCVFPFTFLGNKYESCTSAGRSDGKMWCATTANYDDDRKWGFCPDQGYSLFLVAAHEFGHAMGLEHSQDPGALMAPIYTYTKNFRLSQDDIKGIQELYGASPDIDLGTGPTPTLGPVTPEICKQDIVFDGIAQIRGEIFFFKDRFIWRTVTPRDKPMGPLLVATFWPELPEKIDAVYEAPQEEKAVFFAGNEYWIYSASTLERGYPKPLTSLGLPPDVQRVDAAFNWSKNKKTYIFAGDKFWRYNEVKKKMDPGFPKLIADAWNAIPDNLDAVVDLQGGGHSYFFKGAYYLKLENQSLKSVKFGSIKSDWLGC
MMP-8 (human neutrophil granulocyte, Calbiochem), APMA activated (human), sequence (P22894 101-467 limits assumed): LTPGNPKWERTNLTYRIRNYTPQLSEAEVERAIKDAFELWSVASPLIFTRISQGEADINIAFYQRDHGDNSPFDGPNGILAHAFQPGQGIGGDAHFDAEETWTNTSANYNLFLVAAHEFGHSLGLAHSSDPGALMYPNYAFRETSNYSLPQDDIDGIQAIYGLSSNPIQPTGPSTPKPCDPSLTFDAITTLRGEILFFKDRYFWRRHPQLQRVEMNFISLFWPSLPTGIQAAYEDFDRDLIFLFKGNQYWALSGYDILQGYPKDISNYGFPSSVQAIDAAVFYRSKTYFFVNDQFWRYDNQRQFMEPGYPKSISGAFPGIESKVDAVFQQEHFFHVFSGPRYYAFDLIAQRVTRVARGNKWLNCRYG
MMP-9 (human recombinant protein purified from mammalian cells, Oncogene Research Products), APMA activated (human), sequence (P14780 107-707 limits assumed): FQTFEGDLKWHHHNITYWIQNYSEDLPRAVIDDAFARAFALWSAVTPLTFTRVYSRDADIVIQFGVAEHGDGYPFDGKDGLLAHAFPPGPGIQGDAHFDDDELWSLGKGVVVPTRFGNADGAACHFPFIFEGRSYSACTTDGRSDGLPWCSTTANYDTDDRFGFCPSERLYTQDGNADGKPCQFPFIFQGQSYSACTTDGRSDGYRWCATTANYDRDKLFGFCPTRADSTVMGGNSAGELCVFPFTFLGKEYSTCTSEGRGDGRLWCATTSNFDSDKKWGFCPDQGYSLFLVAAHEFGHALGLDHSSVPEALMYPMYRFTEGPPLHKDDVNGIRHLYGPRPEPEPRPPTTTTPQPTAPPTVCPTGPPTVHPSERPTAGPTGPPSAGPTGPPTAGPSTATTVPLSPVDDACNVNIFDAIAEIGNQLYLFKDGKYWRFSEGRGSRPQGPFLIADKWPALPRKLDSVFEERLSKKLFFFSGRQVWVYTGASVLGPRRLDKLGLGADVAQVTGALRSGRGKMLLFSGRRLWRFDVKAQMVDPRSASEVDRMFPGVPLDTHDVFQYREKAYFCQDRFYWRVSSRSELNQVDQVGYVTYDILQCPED
MMP-1 (human rheumatoid synovial fibroblast, Calbiochem), APMA activated (human), sequence (P03956 100-469 limits assumed): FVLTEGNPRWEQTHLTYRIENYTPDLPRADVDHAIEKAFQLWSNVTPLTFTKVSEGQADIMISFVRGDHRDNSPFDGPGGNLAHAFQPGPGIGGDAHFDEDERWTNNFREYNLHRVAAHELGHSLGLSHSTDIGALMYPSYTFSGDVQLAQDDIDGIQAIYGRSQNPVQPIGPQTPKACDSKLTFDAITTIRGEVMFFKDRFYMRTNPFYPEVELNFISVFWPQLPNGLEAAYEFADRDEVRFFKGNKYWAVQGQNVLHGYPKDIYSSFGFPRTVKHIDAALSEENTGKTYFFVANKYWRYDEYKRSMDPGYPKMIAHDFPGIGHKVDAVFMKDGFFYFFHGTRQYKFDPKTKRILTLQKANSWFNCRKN

Regarding “MMP-2 (gelatinase 72 kD, Boehringer Mannheim), activated with p-aminophenyl mercuric acid”, the “cleavage followed by HPLC” value in data set [1] and in data set [2] was “confirmed by HPLC showing only cleavage of the former but not the latter” each time.

For “control probe (PGC graft copolymer carrying Cy5.5-labelled thrombin control peptide)”, in the data set with thrombin, the NIRF signal after addition of thrombin worked out at 1 fold.

As for thrombin, the “enzymatic assay, cleavage followed by HPLC” value in data set [3] is “there was no cleavage when the serine at P1′ position was replaced by a proline residue”; in data set [4], “the peptide was recognized by thrombin and cleaved into two major products”.

As for trypsin, the “fluorescence signal increase upon activation (trypsin cleavage of the backbone)” value in data set [5] was “Maximum fluorescence recovery was obtained at 20% loading (15-fold fluorescence signal increase upon activation)”.

B1: MMP-2 sensitive probe (PGC graft copolymer carrying Cy5.5-labelled MMP-2 substrate peptides) (peptide, part only; not given: graft copolymer backbone and dye, part only)
peptide: {Cy5.5}-GPLGVRGK(FITC′)C-NH2
modifications: not fully specified (residue 9); printed as GPLGVRGK(FITC)C-NH2; also: about 12 peptides per PGC graft copolymer
Regarding B1, the relative fluorescence increase at equimolar conditions (scaled to active MMP-2 set to 100%) in data set [6] is 19%; in [9], 12%; in data set [10], 28%; in data set [11], 19%. In addition, the fluorescence increase in vitro in data set [7] is less than 850%. For the same molecule, the fluorescence activation (7 pmole enzyme, 10 pmole probe, 10 minutes, 37°) in data set [8] stood at 4.7 AU.
